Marks after values point to notes of the source that are not given here.

Two substances from patent publication US20260209301A1, “Galanin-2 Receptor Agonists” (LIFEARC, priority 2022, published 2026) can be followed below.

The target of test [1] is T1, GALR2 (Homo sapiens, UniProt O43603).
T1 sequence (O43603 1-387): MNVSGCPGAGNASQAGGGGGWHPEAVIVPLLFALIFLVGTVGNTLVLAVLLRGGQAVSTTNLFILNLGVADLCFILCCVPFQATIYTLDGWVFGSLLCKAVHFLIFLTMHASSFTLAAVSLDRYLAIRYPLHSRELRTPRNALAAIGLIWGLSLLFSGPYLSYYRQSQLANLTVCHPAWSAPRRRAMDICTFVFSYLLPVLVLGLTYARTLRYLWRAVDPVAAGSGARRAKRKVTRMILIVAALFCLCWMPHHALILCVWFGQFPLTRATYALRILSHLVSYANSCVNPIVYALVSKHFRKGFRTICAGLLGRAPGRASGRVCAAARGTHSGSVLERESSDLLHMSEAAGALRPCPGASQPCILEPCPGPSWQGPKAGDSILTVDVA
Description: Radioligand binding, [125I]galanin displacement on CHO GalR2 membranes. Set-up: expressed in transfected cells; host or cells: CHO (Flp-In, pcDNA5/FRT). To be noted: recombinant GalR2 membranes, FIG. 3. The method, then:
Cell membrane homogenates (4 μg protein—from CHO cells expressing the GalR2 receptor) were incubated for 120 minutes at 22° C. with 0.05 nM [^125I] galanin in the absence or presence of test compound in a buffer containing 25 mM Tris-HCl (pH 7.4, 10 mM MgCl2 and 0.5% BSA. Non-specific binding was determined in the presence of 1 μM porcine galanin. Following incubation, samples were filtered rapidly under vacuum through glass fiber filters (GF/B, Packard) pre-soaked with 0.3% PEI and rinsed several times with ice cold 50 mM Tris-HCl using a 96 sample cell harvester (Unifilter, Packard). The filters are dried then counted for radioactivity in a scintillation counter (Topcount, Packard) using a scintillation cocktail (Microscint 0), Packard). The results are expressed as a percent inhibition of the control radioligand specific binding. The standard reference compound is porcine galanin which is tested in each experiment at several concentrations to obtain a competition curve from which its IC50 is generated.
Briefly, cell overexpressing recombinant GalR2 were used to for crude membrane preparations. Competition style binding assays were then used to monitor displacement of [125I]-Galanin using a range of concentrations of Gal-FC fusion. After a period of incubation data were expressed relative the maximum specific Galanin bound.

For test [2], the target named is T2, GALR3 (Homo sapiens, UniProt O60755).
T2 construct: expressed in transfected cells; host or cells: genetically modified HEK293 Gqi cells, transient
T2 sequence (O60755 1-368): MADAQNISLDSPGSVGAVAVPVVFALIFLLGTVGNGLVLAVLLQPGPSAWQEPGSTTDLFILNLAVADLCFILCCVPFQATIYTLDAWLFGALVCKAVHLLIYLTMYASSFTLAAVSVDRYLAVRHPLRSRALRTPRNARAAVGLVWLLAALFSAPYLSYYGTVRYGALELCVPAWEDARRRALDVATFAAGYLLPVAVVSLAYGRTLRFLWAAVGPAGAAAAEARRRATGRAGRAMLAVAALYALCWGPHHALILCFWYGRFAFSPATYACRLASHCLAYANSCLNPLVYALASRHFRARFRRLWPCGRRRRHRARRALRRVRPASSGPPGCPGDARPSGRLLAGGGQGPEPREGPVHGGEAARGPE
The test is described as follows: Luciferase reporter gene assay (SRE), HEK293 Gqi cells. The test is classed as cell-based. On the technique in general: Reporter assays use an easily measured gene product as a stand-in for the process of interest.
Description: GalR3 activity was measured, alongside GalR1 and GalR2, using a luciferase reporter assay. A reporter plasmid and a receptor plasmid, were transiently transfected into the target cell line. The reporter plasmid contains a serum response element (SRE) or a nuclear factor of activated T-cells response element (NFAT-RE) which is coupled to a luciferase transcript and induces expression of the luciferase upon a specific G-protein (Gai uses SRE; Gaq uses NFAT-RE) activation. The target receptor is constantly expressed after cell transfection. For GALR1 and GALR3 screening, genetically modified HEK293 Gqi cells were transiently transfected with the SRE reporter and the receptor (GALR1 and GALR3) plasmids. For GALR2 screening, HEK293 cells were transiently transfected with the NFAT-RE reporter and the receptor (GALR2) plasmid. […] The luciferase activity was analyzed with the Bright-Glo Luciferase Assay (Promega) in an EnSpire plate reader.
Therefore, to measure activity at the GalR3 receptor a reporter gene assay was used. In this system MAP/ERK signalling is used to measure receptor activity. Activation of Gqi coupled receptors leads to downstream activation of ERK1/2. The activated ERK translocates to the nucleus where it phosphorylates and activates transcription factors, which lead to the binding of Serum response element (SRE). In this assay SRE activation induces expression of a luciferase reporter gene. […] To ensure this effect was not an artifact of the reporter gene assay, GalR1 and GalR2 reporter assays (using SRE and NFAT-RE respectively) were also run.

Test [3] has as its target T3, rat GalR2 (Rattus norvegicus, UniProt O08726).
T3 sequence (O08726 1-372): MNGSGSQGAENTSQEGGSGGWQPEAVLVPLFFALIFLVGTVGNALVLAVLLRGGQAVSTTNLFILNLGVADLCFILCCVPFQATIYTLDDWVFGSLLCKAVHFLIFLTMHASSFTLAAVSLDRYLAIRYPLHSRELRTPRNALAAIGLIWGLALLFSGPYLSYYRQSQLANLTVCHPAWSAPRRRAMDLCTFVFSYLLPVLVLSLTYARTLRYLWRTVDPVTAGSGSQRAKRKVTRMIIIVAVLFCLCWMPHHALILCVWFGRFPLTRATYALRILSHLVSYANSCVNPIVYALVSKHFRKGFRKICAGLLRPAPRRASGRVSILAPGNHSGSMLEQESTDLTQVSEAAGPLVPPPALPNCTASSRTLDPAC
The test is described as follows: Calcium assay at orthologue receptor. The class given is cell-based. To be noted: Table 8; Calcium assays; mean +/− standard deviation. The source says: These species were chosen as they represent potential downstream in vivo models to be used. […] Calcium imaging was used to define receptor activity.

The target of test [4] is cynomolgus GalR2. Description: Calcium assay at orthologue receptor. The test is classed as cell-based, Macaca fascicularis. To be noted: Table 8; Calcium assays; mean +/− standard deviation. The source says:
(§1) These species were chosen as they represent potential downstream in vivo models to be used. Within native galanin amino acid residues 1-15 are conserved across species, we would therefore expect the Gal FC fusions comprising amino acids 2 to 13 to retain GalR2 activity in these species. Calcium imaging was used to define receptor activity.

The target in test [5] is T1, GALR2. Description: β-arrestin recruitment, PathHunter CHO-K1 GALR2 cells. The test is classed as cell-based. To be noted: Table 2; mean +/− standard deviation, n ≥ 3. The method, then: Ligands were prepared at half log dilutions using cell plating reagent 2. 5 μl of each ligand was added to cells and plates incubated at 37° C. for 90 minutes. DiscoverX PathHunter detection kit (DiscoverX, USA) was added to cells as described my manufacturer's guidelines and plates incubated for 60 minutes at room temperature in the dark. Chemiluminescent signal was measured using the PHERAstar FS (BMG, Germany).
In general terms: Activated receptors often draw arrestin, which recruitment assays turn into a signal.

The target in test [6] is T1, GALR2. Description: Calcium assay, CHO GalR2 cells (FLIPR). To be noted: mean +/− standard deviation.
Description: CHO GalR2 cells were plated at 10,000 cells per well in black clear bottom plates (corning, USA) and incubated overnight at 37° C. with 5% CO2. […] Ligands were prepared at a 5× concentration and added to cells using the FLIPR (Molecular Devices, USA). Baseline was typically 20 seconds before ligand addition. […] For analysis, fluorescence was normalised to pre-addition baseline and peak fluorescence used for all quantification.
In brief, a panel of functional cell-based microtiter-plate assays were developed using recombinant GalR1 and GalR2 receptors stably expressed in CHO cells. […] Nominally this equated to 10 serial (~3fold) dilutions with highest concentrations of 10-1 μM as appropriate.
In addition to generating both potency and efficacy estimates, the latter being expressed relative to native galanin, both G-protein and non-G-Protein signalling pathways were measured.
For test [7], the target named is T4, mouse GalR2 (Mus musculus, UniProt O88854).
T4 sequence (O88854 1-371): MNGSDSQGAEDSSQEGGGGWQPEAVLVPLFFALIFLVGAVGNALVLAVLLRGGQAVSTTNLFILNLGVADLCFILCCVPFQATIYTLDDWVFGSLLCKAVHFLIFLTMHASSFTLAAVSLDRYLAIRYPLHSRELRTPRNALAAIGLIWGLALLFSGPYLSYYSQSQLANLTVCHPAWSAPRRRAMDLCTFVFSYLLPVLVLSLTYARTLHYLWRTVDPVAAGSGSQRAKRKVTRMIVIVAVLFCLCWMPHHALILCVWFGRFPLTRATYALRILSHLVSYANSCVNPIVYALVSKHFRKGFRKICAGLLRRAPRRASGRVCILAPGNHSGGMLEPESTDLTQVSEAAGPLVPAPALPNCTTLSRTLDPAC
The test is described as follows: Calcium assay at orthologue receptor. The test is classed as cell-based. To be noted: Table 8; Calcium assays; mean +/− standard deviation.
From the text: as §1

Test [8] deals with T5, GalR1 (Homo sapiens, UniProt P47211).
T5 sequence (P47211 1-349): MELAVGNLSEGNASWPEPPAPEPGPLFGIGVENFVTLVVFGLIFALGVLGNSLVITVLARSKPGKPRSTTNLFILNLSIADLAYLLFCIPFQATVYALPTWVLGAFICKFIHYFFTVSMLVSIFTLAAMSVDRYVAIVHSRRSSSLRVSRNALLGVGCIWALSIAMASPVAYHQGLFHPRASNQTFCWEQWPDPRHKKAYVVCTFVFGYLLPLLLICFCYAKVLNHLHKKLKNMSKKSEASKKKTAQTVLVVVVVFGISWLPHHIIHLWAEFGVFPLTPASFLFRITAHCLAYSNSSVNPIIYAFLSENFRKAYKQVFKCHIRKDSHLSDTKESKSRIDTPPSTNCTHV
Description: Ala scanning of Gal2-13 peptides, activity at GalR1. To be noted: peptides vs Gal2-13, FIG. 5. The class given is cell-based. The source says: Replacement of residues 2, 3, 5, 6, 9, 10, 11, 12 (corresponding to W, T, L, S, Y, L, L, G) led to a significant decrease in activity at GalR2 (FIG. 5). Replacement of residues 4, 8, 13 (corresponding to N, G, P) caused no decrease in activity. […] Of note, none of the substitutions increased GalR2 or GalR1 agonistic activity.

“Gal2-12FC: galanin 2-12, AEAAAKEAAAKA linker, human IgG1 FC; SEQ ID NO: 25”: the “pIC50, displacement of [125I]-Galanin binding” value in test [1] is on record as 7.24. Besides, the “activity at GalR3 (in words)” value in test [2] is “no measurable activity”. Moreover, the “Rat GalR2 activity” value in test [3] was 6.6 +/− 0.4. Further, the “Cynomolgus GalR2 activity” value in test [4] is 7.7 +/− 0.4. In test [5], the “GalR2 Beta Arrestin, mean pEC50” value is recorded as 7.6 +/− 0.2*. Further, the “GalR2 Calcium, mean pEC50” value in test [6] (Table 2, n ≥ 3) is listed as 6.3 +/− 0.3. Besides, the “GalR2 activity (calcium assay), warhead length” value in test [6] (Table 6, highest concentration tested 10 μM) is on record as 6.6 +/− 0.0. Further, the “Mouse GalR2 activity” value in test [7] was 6.8 +/− 0.1.
Take “Gal2-13ala8: ala scanning peptide WTLNSAAYLLGP, SEQ ID NO: 43”: in test [8], the “effect of Ala substitution on GalR1 activity” value is “reduced GalR1 activity”.
